Assay results from publication PMC12639820, “Antifactor H Autoantibody Characterization in Atypical Hemolytic Uremic Syndrome” (Kidney International Reports, 2025).

Molecular target: T1, purified human C3b (human, UniProt P01024 23-667; P01024 749-1663)
T1 construct: C3b is the two-chain cleavage product of C3; source: purified human C3b
Assay: ELISA; C3b (5 ug/ml) or C3d (5 ug/ml) coated on wells; purified biotinylated human FH (6 ug/ml) preincubated in solution with different amounts of total IgG from patient serum (kAb) or NHS
Conditions: both partners purified

T1 sequence (P01024 23-667, chain 1 of 2): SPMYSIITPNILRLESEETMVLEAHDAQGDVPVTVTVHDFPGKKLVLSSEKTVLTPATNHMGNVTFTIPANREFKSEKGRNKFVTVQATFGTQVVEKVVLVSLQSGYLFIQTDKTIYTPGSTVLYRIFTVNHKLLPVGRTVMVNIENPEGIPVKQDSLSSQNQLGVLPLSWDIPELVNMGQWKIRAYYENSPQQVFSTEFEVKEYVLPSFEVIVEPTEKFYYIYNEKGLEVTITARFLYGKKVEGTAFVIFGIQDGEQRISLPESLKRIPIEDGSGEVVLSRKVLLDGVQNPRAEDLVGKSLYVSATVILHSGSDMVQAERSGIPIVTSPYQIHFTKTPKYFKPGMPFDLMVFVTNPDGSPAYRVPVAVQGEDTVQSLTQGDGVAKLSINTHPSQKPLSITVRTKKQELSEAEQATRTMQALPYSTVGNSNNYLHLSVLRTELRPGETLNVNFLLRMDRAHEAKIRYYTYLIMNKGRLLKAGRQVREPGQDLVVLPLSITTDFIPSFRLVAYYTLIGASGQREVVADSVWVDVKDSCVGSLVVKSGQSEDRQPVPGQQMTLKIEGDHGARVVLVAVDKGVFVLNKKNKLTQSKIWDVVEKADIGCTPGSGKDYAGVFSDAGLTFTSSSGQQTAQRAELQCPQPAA
T1 sequence (P01024 749-1663, chain 2 of 2): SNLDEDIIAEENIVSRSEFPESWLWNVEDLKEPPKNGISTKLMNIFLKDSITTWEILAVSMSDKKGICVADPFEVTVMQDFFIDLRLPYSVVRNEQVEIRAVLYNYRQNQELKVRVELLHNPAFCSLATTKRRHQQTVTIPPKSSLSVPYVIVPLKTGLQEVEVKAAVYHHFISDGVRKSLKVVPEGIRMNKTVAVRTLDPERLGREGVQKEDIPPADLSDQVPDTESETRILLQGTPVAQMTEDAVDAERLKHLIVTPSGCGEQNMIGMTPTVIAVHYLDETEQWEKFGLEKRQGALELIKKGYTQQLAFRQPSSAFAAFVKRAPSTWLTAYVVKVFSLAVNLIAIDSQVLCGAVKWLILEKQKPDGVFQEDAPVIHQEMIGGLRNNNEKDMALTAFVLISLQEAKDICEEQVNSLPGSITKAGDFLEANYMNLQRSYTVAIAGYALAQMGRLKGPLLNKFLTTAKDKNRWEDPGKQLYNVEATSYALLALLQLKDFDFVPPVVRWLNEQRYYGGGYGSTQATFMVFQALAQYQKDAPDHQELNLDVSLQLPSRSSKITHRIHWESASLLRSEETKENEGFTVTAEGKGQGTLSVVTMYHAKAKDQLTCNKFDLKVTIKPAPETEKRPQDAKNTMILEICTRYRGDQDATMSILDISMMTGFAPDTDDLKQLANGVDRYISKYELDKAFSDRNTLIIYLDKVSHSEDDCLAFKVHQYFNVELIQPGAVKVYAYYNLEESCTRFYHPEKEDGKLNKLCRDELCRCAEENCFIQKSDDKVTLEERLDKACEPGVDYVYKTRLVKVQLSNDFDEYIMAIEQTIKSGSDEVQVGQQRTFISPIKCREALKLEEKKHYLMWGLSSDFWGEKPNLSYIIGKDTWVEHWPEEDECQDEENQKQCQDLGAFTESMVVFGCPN

B1: purified biotinylated human factor H (natural protein, UniProt P08603 19-1231, looked up)
chain: EDCNELPPRRNTEILTGSWSDQTYPEGTQAIYKCRPGYRSLGNVIMVCRKGEWVALNPLRKCQKRPCGHPGDTPFGTFTLTGGNVFEYGVKAVYTCNEGYQLLGEINYRECDTDGWTNDIPICEVVKCLPVTAPENGKIVSSAMEPDREYHFGQAVRFVCNSGYKIEGDEEMHCSDDGFWSKEKPKCVEISCKSPDVINGSPISQKIIYKENERFQYKCNMGYEYSERGDAVCTESGWRPLPSCEEKSCDNPYIPNGDYSPLRIKHRTGDEITYQCRNGFYPATRGNTAKCTSTGWIPAPRCTLKPCDYPDIKHGGLYHENMRRPYFPVAVGKYYSYYCDEHFETPSGSYWDHIHCTQDGWSPAVPCLRKCYFPYLENGYNQNYGRKFVQGKSIDVACHPGYALPKAQTTVTCMENGWSPTPRCIRVKTCSKSSIDIENGFISESQYTYALKEKAKYQCKLGYVTADGETSGSITCGKDGWSAQPTCIKSCDIPVFMNARTKNDFTWFKLNDTLDYECHDGYESNTGSTTGSIVCGYNGWSDLPICYERECELPKIDVHLVPDRKKDQYKVGEVLKFSCKPGFTIVGPNSVQCYHFGLSPDLPICKEQVQSCGPPPELLNGNVKEKTKEEYGHSEVVEYYCNPRFLMKGPNKIQCVDGEWTTLPVCIVEESTCGDIPELEHGWAQLSSPPYYYGDSVEFNCSESFTMIGHRSITCIHGVWTQLPQCVAIDKLKKCKSSNLIILEEHLKNKKEFDHNSNIRYRCRGKEGWIHTVCINGRWDPEVNCSMAQIQLCPPPPQIPNSHNMTTTLNYRDGEKVSVLCQENYLIQEGEEITCKDGRWQSIPLCVEKIPCSQPPQIEHGTINSSRSSQESYAHGTKLSYTCEGGFRISEENETTCYMGKWSSPPQCEGLPCKSPPEISHGVVAHMSDSYQYGEEVTYKCFEGFGIDGPAIAKCLGEKWSHPPSCIKTDCLSLPSFENAIPMGEKKDVYKAGEQVTYTCATYYKMDGASNVTCINSRWTGRPTCRDTSCVNPPTVQNAYIVSRQMSKYPSGERVRYQCRSPYEMFGDEEVMCLNGNWTEPPQCKDSTGKCGPPPPIDNGDITSFPLSVYAPASSVEYQCQNLYQLEGNKRITCRNGQWSEPPKCLHPCVISREIMENYNIALRWTAKQKLYSRTGESVEFVCKRGYRLSSRSHTLRTTCWDGKLEYPTCAKR
modifications: biotin (biotinylated; sites not stated)
notes: complement factor H, human, 155 kDa serum protein of 20 CCP domains; purified human protein; also called FH; source: purified human FH, biotinylated
B1: binds.
